Laboratory results as given in patent publication US20120034231A1.

Assays:
[1] = target: cynomolgus IL12Rβ1 (cynomolgus); assay: FACS on Baf3 cells transfected with cyno IL12Rβ1, mouse control mAb
human IL12Rβ1 (human) = human IL12Rβ1 (human) (UniProt P42701); assay: FACS on Baf3 cells transfected with human IL12Rβ1, mouse control mAb

EC50 [1]: 1.47 nM
EC50 (human IL12Rβ1 (human)): 2.35 nM
Substance: Mab839 (mouse monoclonal anti-human IL12Rβ1 control antibody, R&D Systems, Cat# MAB839)
